The target of one test is PD-1/PD-L1 interaction (Homo sapiens, UniProt Q15116+Q9NZQ7). The experiment in a line: PD-1/PD-L1 Blockade Bioassay, Jurkat NFAT-RE luciferase / PD-L1 aAPC CHO-K1 (Example 7). It counts as cell-based. The conditions noted are these: table titled activity in the PD-1/PD-L1 Blockade Cellular Assay; NFAT-RE luminescence, 6 h; read-out: KD FcRn. On the procedure:
For immunocytokine compositions which comprise PD-1 or PD-L1 antibodies or antigen binding fragments, the experiment outlined below is performed to assess the ability of the immunocytokines to interfere with the PD-1/PD-L1 pathway. The assay is the PD-1/PD-L1 Blockade Bioassay from Promega (Cat #J1250, Madison, WI, USA). PD-1/PD-L1 Blockade Bioassay is a bioluminescent cell-based assay based on the co-culture of effector cells with target cells mimicking an immunological synapse. Jurkat T cells expressing human PD-1 and a luciferase reporter driven by a NFAT response element (NFAT-RE) are activated by CHO-K1 cells expressing human PD-L1 and an engineered cell surface protein designed to activate Jurkat cells cognate TCRs. Concurrent interaction PD-1/PD-L1 inhibits TCR signaling and represses NFAT-RE-mediated luminescence. […]
Briefly, PD-L1 aAPC/CHO-K1 Target cells were plated in white tissue culture 96-wells plates and cultured overnight at 37° C./5% CO2. Test molecules were measured in four-fold serial dilutions starting at 1 μM down to 0.002 nM and pre-incubated on target cells for 10 min before the addition of freshly thawed PD-1 Jurkat effector cells. After 6 h at 37° C./5% CO2, activity NFAT-RE luminescent reporter was evaluated by the addition of Bio-Glo reagent and measured on an ENSPTRE® plate reader (1 sec/well) from Perkin Elmer (Schwerzenbach, Switzerland).

The target in a further test is human PD-L1/B7-H1 (Homo sapiens, UniProt Q9NZQ7). The experiment in a line: PD-L1 binding ELISA (Example 5). The conditions noted are these: coated antibody or immunocytokine, biotinylated human PD-L1/B7-H1. On the procedure: The interaction of the unmodified antibodies and corresponding IL-18 immunocytokines with relevant immune cell associated antigen are measured by ELISA assay. For these studies, Corning high-binding half-area plates (Fisher Scientific, Reinach, Switzerland) are coated overnight at 4° C. with 25 μl of unmodified antibodies corresponding IL-18 immunocytokines at 5 μg/ml in PBS. Plates are then washed four times with 100 μl of PBS-0.02% Tween20. Plate surfaces are blocked with 25 μl of PBS-0.02% Tween20-1% BSA at 37° C. during 1 h. Plates are then washed four times with 100 μl of PBS-0.02% Tween20. […] Plates are then washed four times with 100 μl of PBS-0.02% Tween20. Twenty-five microliters of Streptavidin-Horseradish peroxidase (#RABHRP3, Merck, Buchs, Switzerland) diluted at 1:500 into PBS-0.02% Tween20-0.1% BSA are added to each well and incubated at Room Temperature during 30 min. Plates are then washed four times with 100 μl of PBS-0.02% Tween20. Fifty microliters of TMB substrate reagent (#CL07, Merck, Buchs, Switzerland) are added to each well and incubated at 37° C. during 5 min. After 5 min at 37° C., Horseradish peroxidase reaction is stopped by adding 50 μl/well of 0.5M H2SO4 stop solution. ELISA signal is then measured at 450 nm on an ENSPTRE® plate reader from Perkin Elmer (Schwerzenbach, Switzerland).

For test [1], the system named is parental PD-1 negative KG-1 cells. Briefly: IFN gamma secretion assay in parental PD-1 negative KG-1 cells (Example 11). The class given is cell-based, human. The conditions noted are these: IFNγ secretion, 20-24 h. On the procedure:
The KG-1 cell line was used to generate a PD-1 expressing cell line and furthermore, to measure IFNγ release upon incubation with TL-18 variants and corresponding TL-18 immunocytokines.
IFNγ release was assessed in PD-1 positive (transduced) KG-1 cells, as well as in the parental PD-1 negative cells. 0.5×10^5 cells were seeded into a 96-well U-bottom plate in culture media (RPMI, 10% FBS, […]) and stimulated with IL-18 variants/ICs for 20-24 h. The test items were diluted to 100 nM in culture medium, followed by 7 10-fold serial dilutions. The lowest concentration assessed was […]. After incubation, IFNγ release was measured using the LEGENDplex custom human mix and match KIT (Biolegend LEGENDplex™ Human IFN-γ Capture Bead B5, 13×#740942, LEGENDplex™ P 1 Essential Immune Response Panel Detection Abs, #740931, LEGENDplex™ Buffer Set A #740368). To this end, cell culture supernatant was collected and diluted 1:1 with Assay Buffer. Fluorescence measurements were done with a Quanteon Flow Cytometer from Acea Biosciences. For analysis, MFI values (median fluorescence intensity) were exported and plotted against concentrations used. The EC50 values (half maximal effective concentration) were calculated based on a variable slope and four parameter analysis using GraphPad PRISM software version 9.

pEC50, pKd: −log10 of the molar value. Some results are limits rather than exact numbers.

human PD-L1/B7-H1, sequence (Q9NZQ7 19-290): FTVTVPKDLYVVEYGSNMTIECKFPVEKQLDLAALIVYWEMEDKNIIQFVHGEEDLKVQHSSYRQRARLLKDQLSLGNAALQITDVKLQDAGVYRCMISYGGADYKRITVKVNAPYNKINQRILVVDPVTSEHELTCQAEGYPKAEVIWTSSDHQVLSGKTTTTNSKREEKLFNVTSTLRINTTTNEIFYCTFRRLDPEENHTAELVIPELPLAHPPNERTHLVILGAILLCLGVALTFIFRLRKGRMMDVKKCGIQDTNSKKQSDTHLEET
PD-1/PD-L1 interaction, sequence (Q15116 25-288): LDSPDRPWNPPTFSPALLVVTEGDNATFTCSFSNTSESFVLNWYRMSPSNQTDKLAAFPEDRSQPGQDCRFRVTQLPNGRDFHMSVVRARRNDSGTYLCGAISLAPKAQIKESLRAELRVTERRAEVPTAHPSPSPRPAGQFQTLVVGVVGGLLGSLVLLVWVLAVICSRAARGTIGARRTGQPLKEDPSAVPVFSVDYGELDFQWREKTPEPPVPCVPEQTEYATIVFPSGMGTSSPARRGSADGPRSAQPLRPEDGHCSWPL
PD-1/PD-L1 interaction, sequence (Q9NZQ7 19-290): as the sequence (Q9NZQ7 19-290) above

For the substance “LZM-009: anti-PD-1 antibody (VH SEQ ID NO: 376, VL SEQ ID NO: 377), unconjugated reference antibody [reference compound]”, in the test with PD-1/PD-L1 interaction, the PD-1/PD-L1 blockade potency is 5800 pM. Besides, the pKd in the test with human PD-L1/B7-H1 is below 7.00.

As to “Composition B: immunocytokine: Atezolizumab/Tecentriq (anti-PD-L1) conjugated to IL-18 polypeptide SEQ ID NO: 30”, the pEC50 in test [1] was 11.80.

Take “Atezolizumab/Tecentriq: anti-PD-L1 antibody, unconjugated reference antibody [reference compound]”: in the test with PD-1/PD-L1 interaction, the PD-1/PD-L1 blockade potency was found to be 664 pM. The substance further gave a negative-log Kd (pKd) with human PD-L1/B7-H1 of 9.35.

In general, pKd refers to the negative decadic logarithm of the Kd, by convention in mol/L. A higher pKd goes with a low Kd. As usually defined, the pEC50 is −log10 of the EC50, conventionally taken in molar units.

Values taken from US12383631B2, “Immune antigen specific IL-18 immunocytokines and uses thereof” (Bright Peak Therapeutics AG, priority 2022, dated 2025).
